Assay results: patent US20180258158A1 (Bristol-Myers Squibb, published 2018)

What was measured:
[1] = target: T1, mouse serum albumin (MSA), full length (mouse, UniProt P07724 25-608); assay: SPR kinetics (Biacore, CM5): albumin immobilised, Adnectin concentration series as analyte, 37 C, 1:1 binding fit; curve Fc=3-1 [panel MSA]
T1 construct: mature; Immobilized on CM5 chip (SPR) or coated on plates (ELISA); also called mouse albumin; murine serum albumin
Method: (§1) The SPR was conducted as follows. Full length human, mouse, rat and cynomolgus monkey serum albumin were immobilized on a Biacore T series CM5 chip at 15 ug/mL in 10 mM acetate buffer (pH 5.0) buffer using standard NHS/EDC coupling, to a surface density of approximately 1000-1100 RU. For off-rate measurements at 25° C., PKE Adnectins were applied as analytes at 500 nM in HBS-P+(0.01 M HEPES pH 7.4, 0.15 M NaCl, 0.005% v/v Surfactant P20) running buffer at a flow rate of 20ul/min for 120 s over the immobilized albumins, followed by 800 s for dissociation. […] Regeneration of the chip surface between cycles was accomplished with two 30 second pulses of 10 mM Glycine, pH 2.0. Kinetic traces of reference-subtracted sensorgrams were fit to a 1:1 binding model for affinity using the Biaevaluation software. Only the dissociation phase was fit for determination of off-rates.

[2] = target: T2, human serum albumin (HSA), full length (human, UniProt P02768 25-609); assay: SPR, immobilized HSA, 500 nM Adnectin, 25 C
T2 construct: mature; Immobilized on CM5 chip (SPR) or coated on plates (ELISA)
Method: as §1, with “Measurements were conducted by SPR and ELISA. SPR” for “The SPR”, “length HSA or mouse” for “length human, mouse, rat and cynomolgus monkey serum”, “albumin was” for “albumin were”

[3] = target: T2, human serum albumin (HSA), full length; assay: SPR kinetics (Biacore, CM5): albumin immobilised, Adnectin concentration series as analyte, 37 C, 1:1 binding fit; curve Fc=2-1 [panel HSA]
Method: as §1

[4] = target: T1, mouse serum albumin (MSA), full length; assay: SPR, immobilized MSA, 500 nM Adnectin, 25 C
Method: as §1, with “Measurements were conducted by SPR and ELISA. SPR” for “The SPR”, “length HSA or mouse” for “length human, mouse, rat and cynomolgus monkey serum”, “albumin was” for “albumin were”

[5] = target: T3, cynomolgus monkey serum albumin (cynoSA), full length (cynomolgus monkey, UniProt A2V9Z4 25-608); assay: SPR kinetics (Biacore, CM5): ligand '15ug/ml CynoSA in Acetate 5.0' immobilised, Adnectin concentration series as analyte, 37 C, 1:1 binding fit; curve Fc=2-1 [panel Cyno SA]
T3 construct: mature; Immobilized on CM5 chip (SPR); the cynoSA experiment used a different Biacore chip; also called CySA
Method: as §1

[6] = target: T4, rat serum albumin (rat SA), full length (rat, UniProt P02770 25-608); assay: SPR kinetics (Biacore, CM5): albumin immobilised, Adnectin concentration series as analyte, 37 C, 1:1 binding fit; curve Fc=4-1 [panel Rat SA]
T4 construct: mature; Immobilized on CM5 chip (SPR); also called RSA
Method: as §1

[7] = target: T2, human serum albumin (HSA), full length; assay: SPR off-rate, immobilized HSA, 500 nM Adnectin, 25 C
Method: as §1, with “Measurements were conducted by SPR and ELISA. SPR” for “The SPR”, “length HSA or mouse” for “length human, mouse, rat and cynomolgus monkey serum”, “albumin was” for “albumin were”

[8] = target: T1, mouse serum albumin (MSA), full length; assay: SPR off-rate, immobilized MSA, 500 nM Adnectin, 25 C
Method: as §1, with “Measurements were conducted by SPR and ELISA. SPR” for “The SPR”, “length HSA or mouse” for “length human, mouse, rat and cynomolgus monkey serum”, “albumin was” for “albumin were”

[9] = target: T2, human serum albumin (HSA), full length; assay: not stated; lower end of the range 3-6 nM
[10] = target: T4, rat serum albumin (rat SA), full length; assay: SPR kinetics, immobilized albumin, 1:1 fit, 37 C
Method: as §1

[11] = target: T1, mouse serum albumin (MSA), full length; assay: SPR kinetics, immobilized albumin, 1:1 fit, 37 C
Method: as §1

[12] = target: T2, human serum albumin (HSA), full length; assay: SPR kinetics, immobilized albumin, 1:1 fit, 37 C
Method: as §1

[13] = target: T3, cynomolgus monkey serum albumin …; assay: SPR kinetics, immobilized albumin, 1:1 fit, 37 C
Method: as §1

[14] = target: T2, human serum albumin (HSA), full length; assay: not stated; upper end of the range 3-6 nM

T2 sequence (P02768 25-609): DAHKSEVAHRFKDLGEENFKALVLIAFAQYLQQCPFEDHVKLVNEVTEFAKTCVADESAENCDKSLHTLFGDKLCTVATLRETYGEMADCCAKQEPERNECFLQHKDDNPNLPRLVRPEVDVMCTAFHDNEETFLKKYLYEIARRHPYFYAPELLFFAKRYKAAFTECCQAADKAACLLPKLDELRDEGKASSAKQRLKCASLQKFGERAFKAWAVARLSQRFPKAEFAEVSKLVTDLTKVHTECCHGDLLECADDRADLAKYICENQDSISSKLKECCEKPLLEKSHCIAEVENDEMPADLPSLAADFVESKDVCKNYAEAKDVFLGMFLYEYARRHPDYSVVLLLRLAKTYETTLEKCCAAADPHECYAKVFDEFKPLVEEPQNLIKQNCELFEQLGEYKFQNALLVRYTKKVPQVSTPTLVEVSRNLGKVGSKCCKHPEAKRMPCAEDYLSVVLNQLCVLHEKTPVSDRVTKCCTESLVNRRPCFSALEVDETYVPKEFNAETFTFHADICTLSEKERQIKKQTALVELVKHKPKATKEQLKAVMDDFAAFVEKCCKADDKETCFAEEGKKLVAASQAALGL
T4 sequence (P02770 25-608): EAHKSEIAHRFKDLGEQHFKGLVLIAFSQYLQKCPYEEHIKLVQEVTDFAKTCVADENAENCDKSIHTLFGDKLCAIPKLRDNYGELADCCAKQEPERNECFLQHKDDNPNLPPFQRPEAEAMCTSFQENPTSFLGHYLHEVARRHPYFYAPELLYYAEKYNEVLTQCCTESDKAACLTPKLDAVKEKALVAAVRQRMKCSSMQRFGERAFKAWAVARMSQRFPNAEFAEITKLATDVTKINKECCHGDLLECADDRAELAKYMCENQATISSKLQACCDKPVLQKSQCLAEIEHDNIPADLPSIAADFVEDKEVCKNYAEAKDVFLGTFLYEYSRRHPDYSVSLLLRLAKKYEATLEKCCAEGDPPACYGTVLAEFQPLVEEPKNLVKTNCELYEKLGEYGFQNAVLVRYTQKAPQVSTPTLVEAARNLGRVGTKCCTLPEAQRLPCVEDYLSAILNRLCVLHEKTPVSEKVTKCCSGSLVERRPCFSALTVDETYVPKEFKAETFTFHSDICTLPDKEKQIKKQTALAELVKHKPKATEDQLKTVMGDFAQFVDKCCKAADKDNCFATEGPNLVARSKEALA
T3 sequence (A2V9Z4 25-608): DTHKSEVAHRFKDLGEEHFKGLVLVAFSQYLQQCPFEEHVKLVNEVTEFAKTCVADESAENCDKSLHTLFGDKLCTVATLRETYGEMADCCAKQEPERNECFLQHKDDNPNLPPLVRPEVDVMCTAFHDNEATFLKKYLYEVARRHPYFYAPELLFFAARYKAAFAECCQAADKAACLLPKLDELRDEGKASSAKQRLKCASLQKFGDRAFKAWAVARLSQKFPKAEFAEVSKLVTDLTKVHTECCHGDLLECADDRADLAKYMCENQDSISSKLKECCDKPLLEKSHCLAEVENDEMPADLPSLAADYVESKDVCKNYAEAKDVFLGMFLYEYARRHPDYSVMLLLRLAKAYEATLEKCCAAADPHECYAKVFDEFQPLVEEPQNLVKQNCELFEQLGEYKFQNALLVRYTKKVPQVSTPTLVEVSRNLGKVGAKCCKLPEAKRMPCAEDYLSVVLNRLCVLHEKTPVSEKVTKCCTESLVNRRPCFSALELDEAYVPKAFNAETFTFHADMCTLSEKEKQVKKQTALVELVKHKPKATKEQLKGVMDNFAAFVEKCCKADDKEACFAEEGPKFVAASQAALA

- koff [1]: 0.000668 s⁻¹
- kon [1]: 237000 M⁻¹ s⁻¹
- HSA Binding (RU) [2]: 54 RU
- koff [3]: 0.000378 s⁻¹
- kon [3]: 61200 M⁻¹ s⁻¹
- MSA Binding (RU) [4]: 95 RU
- Kd [5]: 4.38 nM
- koff [5]: 0.000391 s⁻¹
- kon [5]: 89400 M⁻¹ s⁻¹
- koff [6]: 0.00143 s⁻¹
- kon [6]: 180000 M⁻¹ s⁻¹
- koff [7]: 0.000269 s⁻¹
- koff [8]: 0.000428 s⁻¹
- Kd [9]: 3 to 6 nM
- Kd [10]: 8 nM
- koff [10]: 0.00143 s⁻¹
- kon [10]: 180000 M⁻¹ s⁻¹
- Kd [11]: 2.8 nM
- koff [11]: 0.000668 s⁻¹
- kon [11]: 237000 M⁻¹ s⁻¹
- Kd [12]: 6.2 nM
- koff [12]: 0.000378 s⁻¹
- kon [12]: 61200 M⁻¹ s⁻¹
- Kd [13]: 4.4 nM
- koff [13]: 0.000391 s⁻¹
- kon [13]: 89400 M⁻¹ s⁻¹
- Kd [14]: 3 to 6 nM
B1: ADX_7016_A01 (parent PKE2 Adnectin) (designed binder)
chain: MGVSDVPRDLEVVAATPTSLLISWDAPAVTVRYYRITYGREVQKYSDLGPLYIYQEFTVPGSKSTATISGLKPGVDYTITVYAVTGSGESPASSKPISINYRTEIDKPSQHHHHHH
notes: N-terminal Met may be cleaved; also called 2629_E06; ADX_2629_E06
